Assay results as given in patent US12263245B2, “Immunomodulating treatments of body cavities” (UROGEN PHARMA LTD., priority 2023, dated 2025).

Experiments:
CD4+ICOShi T cells = conditions: patients treated systemically with two doses, cited from earlier work
[1] = set-up: species or system human; conditions: in vivo
[2] = Aggregation stability of AGEN1884 drug product; type: physicochemical
From the text: AGEN1884 is very stable to aggregation.

Substance | Expression of CD4+ICOShi T cells (CD4+ICOShi T cells; blood samples) | Increase in levels of IFN-γ compared to untreated patients (CD4+ICOShi T cells) | Sustained concentration of zalifrelimab detected in urine overtime [1] | Increase in aggregate ([2]; all samples at all ambient temperatures analyzed (even elevated) through the nine-month time point) | Zalifrelimab aggregates after 24 hours ([2]; stored at about 2° C.-8° C. for at least 24 hours)
ipilimumab: an anti-CTLA-4 antibody | increased expression | approximately five-fold |  |  | 
zalifrelimab: recombinant, fully human immunoglobulin G1 monoclonal antibody that neutralizes the inhibitory effects of CTLA-4 |  |  | below the level of quantitation | no increase in aggregate was detected | substantially free from zalifrelimab aggregates
